Source: US20220402983A1 (Janssen / Centocor, published 2022)
Bridges are numbered along the chain shown (N, C = ends). [ ]: non-standard residue; d: D form. The star is where a group is joined. Trp(7-Me) = Cc1cccc2c(C[C@H](N)C(=O)O)c[nH]c12; 2Nal = N[C@@H](Cc1ccc2ccccc2c1)C(=O)O; AEF = NCCOc1ccc(C[C@H](N)C(=O)O)cc1; αMeF = C[C@](N)(Cc1ccccc1)C(=O)O; Pen = CC(C)(S)[C@H](N)C(=O)O; αMeK = C[C@](N)(CCCCN)C(=O)O; 3Quin = not defined here; Ac5c = NC1(C(=O)O)CCCC1; Thp = NC1(C(=O)O)CCOCC1; Piv = CC(C)(C)C(=O)*; Propionyl = CCC(=O)*; Tfa = O=C(C(F)(F)F)*

T1: human IL-23R (interleukin-23 receptor) (human, UniProt Q5VWK5 24-629)
T1 sequence (looked up): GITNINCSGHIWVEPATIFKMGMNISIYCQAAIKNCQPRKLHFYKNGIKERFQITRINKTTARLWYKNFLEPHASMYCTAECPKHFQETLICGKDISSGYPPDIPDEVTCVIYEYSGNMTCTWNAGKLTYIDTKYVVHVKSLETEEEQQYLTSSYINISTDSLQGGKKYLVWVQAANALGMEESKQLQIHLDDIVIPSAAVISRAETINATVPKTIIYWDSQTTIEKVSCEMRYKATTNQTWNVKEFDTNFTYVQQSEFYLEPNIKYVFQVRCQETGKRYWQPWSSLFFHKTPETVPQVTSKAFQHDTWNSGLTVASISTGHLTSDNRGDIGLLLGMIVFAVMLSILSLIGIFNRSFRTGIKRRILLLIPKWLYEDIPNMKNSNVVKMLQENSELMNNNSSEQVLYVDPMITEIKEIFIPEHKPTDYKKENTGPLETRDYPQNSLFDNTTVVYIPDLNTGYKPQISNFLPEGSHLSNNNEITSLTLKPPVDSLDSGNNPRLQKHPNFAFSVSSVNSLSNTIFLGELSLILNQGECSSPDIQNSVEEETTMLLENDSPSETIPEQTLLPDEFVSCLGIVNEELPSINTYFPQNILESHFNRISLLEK


Experiments:
[1] = target: T1, human IL-23R (interleukin-23 receptor); test: cell-based or functional assay
[2] = target: T1, human IL-23R (interleukin-23 receptor); test: cell-based or functional assay; remark: listed apart in the source

| PBMC pSTAT3 IC50 (nM) [1] [nM] | pStat3 HTRF (nM), IC50, DB cells IL23R pSTAT3 cell assay [1] [nM] | NK Cell Assay (nM), IC50, IFN-gamma after IL-23 and IL-18 [2] [nM] | Binder |
| --- | --- | --- | --- |
| 4.6 |  |  | Ac-[dR][Pen]NT[Trp(7-Me)]Q[Pen][AEF][2Nal][Ac5c]EN[αMeF]-NH2 (disulfide 2-7; SMILES CC(=O)N[C@H](CCCNC(=N)N)C(=O)N[C@@H]1C(=O)N[C@@H](CC(N)=O)C(=O)N[C@@H]([C@@H](C)O)C(=O)N[C@@H](Cc2c[nH]c3c(C)cccc23)C(=O)N[C@@H](CCC(N)=O)C(=O)N[C@H](C(=O)N[C@@H](Cc2ccc(OCCN)cc2)C(=O)N[C@@H](Cc2ccc3ccccc3c2)C(=O)NC2(C(=O)N[C@@H](CCC(=O)O)C(=O)N[C@@H](CC(N)=O)C(=O)N[C@@](C)(Cc3ccccc3)C(N)=O)CCCC2)C(C)(C)SSC1(C)C) [Compound No. 93] |
| 3.7 |  |  | Ac-[dR][Pen]NT[Trp(7-Me)]Q[Pen][AEF][2Nal][Thp]EN[Thp]-NH2 (disulfide 2-7; SMILES CC(=O)N[C@H](CCCNC(=N)N)C(=O)N[C@@H]1C(=O)N[C@@H](CC(N)=O)C(=O)N[C@@H]([C@@H](C)O)C(=O)N[C@@H](Cc2c[nH]c3c(C)cccc23)C(=O)N[C@@H](CCC(N)=O)C(=O)N[C@H](C(=O)N[C@@H](Cc2ccc(OCCN)cc2)C(=O)N[C@@H](Cc2ccc3ccccc3c2)C(=O)NC2(C(=O)N[C@@H](CCC(=O)O)C(=O)N[C@@H](CC(N)=O)C(=O)NC3(C(N)=O)CCOCC3)CCOCC2)C(C)(C)SSC1(C)C) [Compound No. 90] |
| 8.6 | 2.46 | 16.8 | Propionyl-[dR][Pen]QTWQ[Pen][AEF][2Nal][Thp]K(Tfa)N[Thp]-NH2 (disulfide 2-7; SMILES CCC(=O)N[C@H](CCCNC(=N)N)C(=O)N[C@@H]1C(=O)N[C@@H](CCC(N)=O)C(=O)N[C@@H]([C@@H](C)O)C(=O)N[C@@H](Cc2c[nH]c3ccccc23)C(=O)N[C@@H](CCC(N)=O)C(=O)N[C@H](C(=O)N[C@@H](Cc2ccc(OCCN)cc2)C(=O)N[C@@H](Cc2ccc3ccccc3c2)C(=O)NC2(C(=O)N[C@@H](CCCCNC(=O)C(F)(F)F)C(=O)N[C@@H](CC(N)=O)C(=O)NC3(C(N)=O)CCOCC3)CCOCC2)C(C)(C)SSC1(C)C) [Compound No. 6] |
| 3.7 |  |  | Ac-[dR][Pen]NTWK(Ac)[Pen][AEF][2Nal][Ac5c]EN[Thp]-NH2 (disulfide 2-7; SMILES CC(=O)NCCCC[C@@H]1NC(=O)[C@H](Cc2c[nH]c3ccccc23)NC(=O)[C@H]([C@@H](C)O)NC(=O)[C@H](CC(N)=O)NC(=O)[C@@H](NC(=O)[C@@H](CCCNC(=N)N)NC(C)=O)C(C)(C)SSC(C)(C)[C@@H](C(=O)N[C@@H](Cc2ccc(OCCN)cc2)C(=O)N[C@@H](Cc2ccc3ccccc3c2)C(=O)NC2(C(=O)N[C@@H](CCC(=O)O)C(=O)N[C@@H](CC(N)=O)C(=O)NC3(C(N)=O)CCOCC3)CCCC2)NC1=O) [Compound No. 88] |
|  | 0.602 | 2.89 | Ac-[Pen]NT[Trp(7-Me)]K(Ac)[Pen][AEF][3Quin][αMeK]K(Ac)N[dL]-NH2 (disulfide 1-6; reading uncertain; also: printed as Ac-[Pen]-N-T-[W(7-Me)]-[Lys(Ac)]-[Pen]-Phe[4-(2-aminoethoxy)]-[3-Quin]-[a-MeLys]-[Lys(Ac)]-N-[(D)Leu)]-NH2) [Compound No. 1] |
| 8.6 | 3.87 | 12.6 | Propionyl-[dR][Pen]QTWQ[Pen][AEF][2Nal][Thp]K(Piv)N[Thp]-NH2 (disulfide 2-7; SMILES CCC(=O)N[C@H](CCCNC(=N)N)C(=O)N[C@@H]1C(=O)N[C@@H](CCC(N)=O)C(=O)N[C@@H]([C@@H](C)O)C(=O)N[C@@H](Cc2c[nH]c3ccccc23)C(=O)N[C@@H](CCC(N)=O)C(=O)N[C@H](C(=O)N[C@@H](Cc2ccc(OCCN)cc2)C(=O)N[C@@H](Cc2ccc3ccccc3c2)C(=O)NC2(C(=O)N[C@@H](CCCCNC(=O)C(C)(C)C)C(=O)N[C@@H](CC(N)=O)C(=O)NC3(C(N)=O)CCOCC3)CCOCC2)C(C)(C)SSC1(C)C) [Compound No. 7] |
| 22 |  |  | Ac-[Pen]NTWK(Ac)[Pen][AEF][2Nal][αMeK]K(Ac)N[Thp]-NH2 (disulfide 1-6; SMILES CC(=O)NCCCC[C@@H]1NC(=O)[C@H](Cc2c[nH]c3ccccc23)NC(=O)[C@H]([C@@H](C)O)NC(=O)[C@H](CC(N)=O)NC(=O)[C@@H](NC(C)=O)C(C)(C)SSC(C)(C)[C@@H](C(=O)N[C@@H](Cc2ccc(OCCN)cc2)C(=O)N[C@@H](Cc2ccc3ccccc3c2)C(=O)N[C@@](C)(CCCCN)C(=O)N[C@@H](CCCCNC(C)=O)C(=O)N[C@@H](CC(N)=O)C(=O)NC2(C(N)=O)CCOCC2)NC1=O) [Compound No. 95] |
| 4.1 |  |  | Ac-[dR][Pen]NT[Trp(7-Me)]Q[Pen][AEF][2Nal][Thp]EN[αMeF]-NH2 (disulfide 2-7; SMILES CC(=O)N[C@H](CCCNC(=N)N)C(=O)N[C@@H]1C(=O)N[C@@H](CC(N)=O)C(=O)N[C@@H]([C@@H](C)O)C(=O)N[C@@H](Cc2c[nH]c3c(C)cccc23)C(=O)N[C@@H](CCC(N)=O)C(=O)N[C@H](C(=O)N[C@@H](Cc2ccc(OCCN)cc2)C(=O)N[C@@H](Cc2ccc3ccccc3c2)C(=O)NC2(C(=O)N[C@@H](CCC(=O)O)C(=O)N[C@@H](CC(N)=O)C(=O)N[C@@](C)(Cc3ccccc3)C(N)=O)CCOCC2)C(C)(C)SSC1(C)C) [Compound No. 91] |
| 12 |  |  | XNTXQXFXKKNF (Ac-[Pen]-N-T-[W(7-Me)]-Q-[Pen]-Phe[4-(2-aminoethoxy)]-[2-Nal]-[a-MeLys]-[Lys(Ac)]-N-[a-MePhe]-NH2; cyclized: Pen-Pen disulfide bond) [Compound No. 89] |
| 31 |  |  | Ac-[dR][Pen]QTWQ[Pen][AEF][2Nal][Thp]EN[αMeF]-NH2 (disulfide 2-7; SMILES CC(=O)N[C@H](CCCNC(=N)N)C(=O)N[C@@H]1C(=O)N[C@@H](CCC(N)=O)C(=O)N[C@@H]([C@@H](C)O)C(=O)N[C@@H](Cc2c[nH]c3ccccc23)C(=O)N[C@@H](CCC(N)=O)C(=O)N[C@H](C(=O)N[C@@H](Cc2ccc(OCCN)cc2)C(=O)N[C@@H](Cc2ccc3ccccc3c2)C(=O)NC2(C(=O)N[C@@H](CCC(=O)O)C(=O)N[C@@H](CC(N)=O)C(=O)N[C@@](C)(Cc3ccccc3)C(N)=O)CCOCC2)C(C)(C)SSC1(C)C) [Compound No. 97] |
| 12 |  |  | Ac-[dR][Pen]NT[Trp(7-Me)]K(Ac)[Pen][AEF][2Nal][Ac5c]EN[αMeF]-NH2 (disulfide 2-7; SMILES CC(=O)NCCCC[C@@H]1NC(=O)[C@H](Cc2c[nH]c3c(C)cccc23)NC(=O)[C@H]([C@@H](C)O)NC(=O)[C@H](CC(N)=O)NC(=O)[C@@H](NC(=O)[C@@H](CCCNC(=N)N)NC(C)=O)C(C)(C)SSC(C)(C)[C@@H](C(=O)N[C@@H](Cc2ccc(OCCN)cc2)C(=O)N[C@@H](Cc2ccc3ccccc3c2)C(=O)NC2(C(=O)N[C@@H](CCC(=O)O)C(=O)N[C@@H](CC(N)=O)C(=O)N[C@@](C)(Cc3ccccc3)C(N)=O)CCCC2)NC1=O) [Compound No. 94] |
